Laboratory results from PMC5014551 (2016).

B1: Bol1-Strep [S. cerevisiae] / Isa2 [S. cerevisiae] (parent complex)
chain 1: MFKRAMSTDGPVARTILKRLECGFPDYKNFAFGLYNDSHKHKGHAGVQGNVSAETHFRIEMVSKKFEGLKLPQRHRMVYSLLQDEMAQANGIHALQLSLKTPQEYESKAK
chain 2: MQAKLLFTRLNFRRPSTTLRQFPLTCFLFHSKAFYSDLVTKEPLITPKRIINKTPGLNLSISERASNRLAEIYRNSKENLRISVESGGCHGFQYNLTLEPATKPDIKNDVKDKEFSDDLDDDDSKDIIYVLPEDKGRVIIDSKSLNILNNTTLTYTNELIGSSFKIINGSLKSSCGCGSSFDIEN
B2: Bol1-Strep [S. cerevisiae] / Sdh2 [S. cerevisiae (endogenous in yeast mitochondria)] (parent complex)
chain 1: B1 chain 1
chain 2: TATTAAATHTPRLKTFKVYRWNPDEPSAKPHLQSYQVDLNDCGPMVLDALLKIKDEQDSTLTFRRSCREGICGSCAMNIGGRNTLACICKIDQNESKQLKIYPLPHMFIVKDLVPDLTNFYQQYKSIQPYLQRSSFPKDGTEVLQSIEDRKKLDGLYECILCACCSTSCPSYWWNQEQYLGPAVLMQAYRWLIDSRDQATKTRKAMLNNSMSLYRCHTIMNCTRTCPKGLNPGLAIAEIKKSLAFA
B3: Bol1-Strep [S. cerevisiae] / Lip5 [S. cerevisiae (endogenous in yeast mitochondria)] (parent complex)
chain 1: B1 chain 1
chain 2: SSTIRCGTSATRPIRSNALNTDSDNASVRVPVGNSTEVENATSQLTGTSGKRRKGNRKRITEFKDALNLGPSFADFVSGKASKMILDPLEKARQNTEEAKKLPRWLKVPIPKGTNYHKLKGDVKELGLSTVCEEARCPNIGECWGGKDKSKATATIMLLGDTCTRGCRFCSVKTNRTPSKPDPMEPENTAEAIKRWGLGYVVLTTVDRDDLVDGGANHLAETVRKIKQKAPNTLVETLSGDFRGDLKMVDIMAQCGLDVYAHNLETVESLTPHVRDRRATYRQSLSVLERAKATVPSLITKTSIMLGLGETDEQITQTLKDLRNIQCDVVTFGQYMRPTKRHMKVVEYVKPEKFDYWKERALEMGFLYCASGPLVRSSYKAGEAFIENVLKKRNMK
B4: Bol1-Strep [S. cerevisiae] / Lys4 [S. cerevisiae (endogenous in yeast mitochondria)] (parent complex)
chain 1: B1 chain 1
chain 2: LKGQNLTEKIVQSYAVNLPEGKVVHSGDYVSIKPAHCMSHDNSWPVALKFMGLGATKIKNPSQIVTTLDHDIQNKSEKNLTKYKNIENFAKKHHIDHYPAGRGIGHQIMIEEGYAFPLNMTVASDSHSNTYGGLGSLGTPIVRTDAAAIWATGQTWWQIPPVAQVELKGQLPQGVSGKDIIVALCGLFNNDQVLNHAIEFTGDSLNALPIDHRLTIANMTTEWGALSGLFPVDKTLIDWYKNRLQKLGTNNHPRINPKTIRALEEKAKIPKADKDAHYAKKLIIDLATLTHYVSGPNSVKVSNTVQDLSQQDIKINKAYLVSCTNSRLSDLQSAADVVCPTGDLNKVNKVAPGVEFYVAAASSEIEADARKSGAWEKLLKAGCIPLPSGCGPCIGLGAGLLEPGEVGISATNRNFKGRMGSKDALAYLASPAVVAASAVLGKISSPAEVLSTSEIPFSGVKTEIIENPVVEEEVNAQTEAPKQSVEILEGFPREFSGELVLCDADNINTDGIYPGKYTYQDDVPKEKMAQVCMENYDAEFRTKVHPGDIVVSGFNFGTGSSREQAATALLAKGINLVVSGSFGNIFSRNSINNALLTLEIPALIKKLREKYQGAPKELTRRTGWFLKWDVADAKVVVTEGSLDGPVILEQKVGELGKNLQEIIVKGGLEGWVKSQL
B5: Bol1-Strep [S. cerevisiae] / Aco2 [S. cerevisiae (endogenous in yeast mitochondria)] (parent complex)
chain 1: B1 chain 1
chain 2: ATHANMFPSVSKNFQTKVPPYAKLLTNLDKIKQITNNAPLTLAEKILYSHLCDPEESITSSDLSTIRGNKYLKLNPDRVAMQDASAQMALLQFMTTGLNQTSVPASIHCDHLIVGKDGETKDLPSSIATNQEVFDFLESCAKRYGIQFWGPGSGIIHQIVLENFSAPGLMMLGTDSHTPNAGGLGAIAIGVGGADAVDALTGTPWELKAPKILGVKLTGKLNGWSTPKDVITKLAGLLTVRGGTGYIVEYFGEGVSTLSCTGMATICNMGAEIGATTSTFPYQEAHKRYLQATNRAEVAEAADVALNKFNFLRADKDAQYDKVIEIDLSAIEPHVNGPFTPDLSTPISQYAEKSLKENWPQKVSAGLIGSCTNSSYQDMSRVVDLVKQASKAGLKPRIPFFVTPGSEQIRATLERDGIIDIFQENGAKVLANACGPCIGQWNREDVSKTSKETNTIFTSFNRNFRARNDGNRNTMNFLTSPEIVTAMSYSGDAQFNPLTDSIKLPNGKDFKFQPPKGDELPKRGFEHGRDKFYPEMDPKPDSNVEIKVDPNSDRLQLLEPFKPWNGKELKTNVLLKVEGKCTTDHISAAGVWLKYKGHLENISYNTLIGAQNKETGEVNKAYDLDGTEYDIPGLMMKWKSDGRPWTVIAEHNYGEGSAREHAALSPRFLGGEILLVKSFARIHETNLKKQGVLPLTFANESDYDKISSGDVLETLNLVDMIAKDGNNGGEIDVKITKPNGESFTIKAKHTMSKDQIDFFKAGSAINYIGNIRRNE
B6: Bol1-Strep [S. cerevisiae] / Bio2 [S. cerevisiae (endogenous in yeast mitochondria)] (parent complex)
chain 1: B1 chain 1
chain 2: TKYATNAAVKSTTASSEASTLGALQYALSLDEPSHSWTKSQLKEIYHTPLLELTHAAQLQHRKWHDPTKVQLCTLMNIKSGGCSEDCKYCAQSSRNDTGLKAEKMVKVDEVIKEAEEAKRNGSTRFCLGAAWRDMKGRKSAMKRIQEMVTKVNDMGLETCVTLGMVDQDQAKQLKDAGLTAYNHNIDTSREHYSKVITTRTYDDRLQTIKNVQESGIKACTGGILGLGESEDDHIGFIYTLSNMSPHPESLPINRLVAIKGTPMAEELADPKSKKLQFDEILRTIATARIVMPKAIIRLAAGRYTMKETEQFVCFMAGCNSIFTGKKMLTTMCNGWDEDKAMLAKWGLQPMEAFKYDRS
B7: Bol1-Strep [S. cerevisiae] / dihydroxyacid dehydratase (Ilv3) [S. cerevisiae (endogenous in yeast mitochondria)] (parent complex)
chain 1: B1 chain 1
chain 2: not shown
B8: Bol3-Strep [S. cerevisiae] / dihydroxyacid dehydratase (Ilv3) [S. cerevisiae (endogenous in yeast mitochondria)] (parent complex)
chain 1: MKLPQTMLRSISVKHVRWPRILTGSKLWYSTQMAMTPEEKMITDKLQQELEPEVCKVQDVSGGCGSMFAINITSKKFNGLSLIKQHQLVNRILRDDISRWHGLQLTTKKSTGKGPASS
chain 2: not shown
B9: Bol1-Strep [S. cerevisiae] / Aco1 [S. cerevisiae (endogenous in yeast mitochondria)] (parent complex)
chain 1: B1 chain 1
chain 2: ATVSNLTRDSKVNQNLLEDHSFINYKQNVETLDIVRKRLNRPFTYAEKILYGHLDDPHGQDIQRGVSYLKLRPDRVACQDATAQMAILQFMSAGLPQVAKPVTVHCDHLIQAQVGGEKDLKRAIDLNKEVYDFLASATAKYNMGFWKPGSGIIHQIVLENYAFPGALIIGTDSHTPNAGGLGQLAIGVGGADAVDVMAGRPWELKAPKILGVKLTGKMNGWTSPKDIILKLAGITTVKGGTGKIVEYFGDGVDTFSATGMGTICNMGAEIGATTSVFPFNKSMIEYLEATGRGKIADFAKLYHKDLLSADKDAEYDEVVEIDLNTLEPYINGPFTPDLATPVSKMKEVAVANNWPLDVRVGLIGSCTNSSYEDMSRSASIVKDAAAHGLKSKTIFTVTPGSEQIRATIERDGQLETFKEFGGIVLANACGPCIGQWDRRDIKKGDKNTIVSSYNRNFTSRNDGNPQTHAFVASPELVTAFAIAGDLRFNPLTDKLKDKDGNEFMLKPPHGDGLPQRGYDAGENTYQAPPADRSTVEVKVSPTSDRLQLLKPFKPWDGKDAKDMPILIKAVGKTTTDHISMAGPWLKYRGHLENISNNYMIGAINAENKKANCVKNVYTGEYKGVPDTARDYRDQGIKWVVIGDENFGEGSSREHAALEPRFLGGFAIITKSFARIHETNLKKQGLLPLNFKNPADYDKINPDDRIDILGLAELAPGKPVTMRVHPKNGKPWDAVLTHTFNDEQIEWFKYGSALNKIKADEKK

Variants of: B1
Assay: Strep-tag affinity purification with MS proteomics (spectral counts); parent: 0; read off a plot

Variant | screen value [%]
chain 1 MFKRAMSTDGPVARTILKRLECGFPDYKNFAFGLYNDSHKHKGHAGVQGNVSAETHFRIEMVSKKFEGLKLPQRHRMVYSLLQDEMAQANGICALQLSLKTPQEYESKAK | ~0

Variants of: B2
Assay: as above

Variant | screen value [%]
chain 1 MFKRAMSTDGPVARTILKRLECGFPDYKNFAFGLYNDSHKHKGHAGVQGNVSAETHFRIEMVSKKFEGLKLPQRHRMVYSLLQDEMAQANGICALQLSLKTPQEYESKAK | ~0

Variants of: B3
Assay: as above

Variant | screen value [%]
chain 1 MFKRAMSTDGPVARTILKRLECGFPDYKNFAFGLYNDSHKHKGHAGVQGNVSAETHFRIEMVSKKFEGLKLPQRHRMVYSLLQDEMAQANGICALQLSLKTPQEYESKAK | ~0

Variants of: B4
Assay: as above

Variant | screen value [%]
chain 1 MFKRAMSTDGPVARTILKRLECGFPDYKNFAFGLYNDSHKHKGHAGVQGNVSAETHFRIEMVSKKFEGLKLPQRHRMVYSLLQDEMAQANGICALQLSLKTPQEYESKAK | ~0

Variants of: B5
Assay: as above

Variant | screen value [%]
chain 1 MFKRAMSTDGPVARTILKRLECGFPDYKNFAFGLYNDSHKHKGHAGVQGNVSAETHFRIEMVSKKFEGLKLPQRHRMVYSLLQDEMAQANGICALQLSLKTPQEYESKAK | ~0

Variants of: B6
Assay: as above

Variant | screen value [%]
chain 1 MFKRAMSTDGPVARTILKRLECGFPDYKNFAFGLYNDSHKHKGHAGVQGNVSAETHFRIEMVSKKFEGLKLPQRHRMVYSLLQDEMAQANGICALQLSLKTPQEYESKAK | ~0

Variants of: B7
Assay: Strep-tag affinity purification with MS proteomics (spectral counts); parent: 4; read off a plot

Variant | screen value [%]
chain 1 H93C | ~0

Variants of: B8
Assay: Strep-tag affinity purification with MS proteomics (spectral counts); parent: 16; read off a plot

Variant | screen value [%]
chain 1 H101C | ~45

Variants of: B9
Assay: Strep-tag affinity purification with MS proteomics (spectral counts); parent: 3.5; read off a plot

Variant | screen value [%]
chain 1 MFKRAMSTDGPVARTILKRLECGFPDYKNFAFGLYNDSHKHKGHAGVQGNVSAETHFRIEMVSKKFEGLKLPQRHRMVYSLLQDEMAQANGICALQLSLKTPQEYESKAK | ~1.5
